The values below come from article PMC10377191, “The Crystal Structure of the Hsp90-LA1011 Complex and the Mechanism by Which LA1011 May Improve the Prognosis of Alzheimer’s Disease” (Biomolecules, 2023).

This assay has as its target T1, yeast Hsp90 (yeast, UniProt P02829 1-709).
T1 construct: yeast Hsp90 as used in the ITC experiments; probably the full-length protein was used (surmise)
The assay is described as follows: ITC; 400 μM FKBP51 or FKBP51-Δ7He injected into 30 μM Hsp90; 20 mM Tris pH 7.5, 5 mM NaCl, 30 °C. The settings on record: both partners purified.

T1 sequence (P02829 whole entry): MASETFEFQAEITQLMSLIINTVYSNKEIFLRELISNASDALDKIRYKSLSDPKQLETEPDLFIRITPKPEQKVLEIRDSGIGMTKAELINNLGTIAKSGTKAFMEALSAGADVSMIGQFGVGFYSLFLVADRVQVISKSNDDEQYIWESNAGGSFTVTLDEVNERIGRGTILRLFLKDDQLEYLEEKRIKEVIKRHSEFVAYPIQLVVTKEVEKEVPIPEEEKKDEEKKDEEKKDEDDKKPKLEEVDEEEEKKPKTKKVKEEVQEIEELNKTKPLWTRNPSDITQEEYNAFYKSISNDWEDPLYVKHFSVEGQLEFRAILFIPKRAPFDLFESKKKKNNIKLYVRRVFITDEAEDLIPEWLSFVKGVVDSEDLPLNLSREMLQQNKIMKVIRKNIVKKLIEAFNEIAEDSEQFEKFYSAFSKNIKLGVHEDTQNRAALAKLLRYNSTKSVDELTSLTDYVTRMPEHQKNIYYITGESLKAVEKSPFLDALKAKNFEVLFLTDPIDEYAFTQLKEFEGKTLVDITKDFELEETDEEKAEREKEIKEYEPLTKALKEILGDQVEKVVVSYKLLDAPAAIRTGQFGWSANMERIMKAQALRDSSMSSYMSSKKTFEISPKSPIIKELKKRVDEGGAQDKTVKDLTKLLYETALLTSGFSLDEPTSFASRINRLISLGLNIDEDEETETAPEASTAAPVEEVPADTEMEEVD

B1: FKBP51-Δ7He (lacking residues 401–457 of the extended 7th helix of the TPR domain) (domain or fragment, UniProt Q13451 1-400, looked up)
chain: MTTDEGAKNNEESPTATVAEQGEDITSKKDRGVLKIVKRVGNGEETPMIGDKVYVHYKGKLSNGKKFDSSHDRNEPFVFSLGKGQVIKAWDIGVATMKKGEICHLLCKPEYAYGSAGSLPKIPSNATLFFEIELLDFKGEDLFEDGGIIRRTKRKGEGYSNPNEGATVEIHLEGRCGGRMFDCRDVAFTVGEGEDHDIPIGIDKALEKMQREEQCILYLGPRYGFGEAGKPKFGIEPNAELIYEVTLKSFEKAKESWEMDTKEKLEQAAIVKEKGTVYFKGGKYMQAVIQYGKIVSWLEMEYGLSEKESKASESFLLAAFLNLAMCYLKLREYTKAVECCDKALGLDSANEKGLYRRGEAQLLMNEFESAKGDFEKVLEVNPQNKAARLQISMCQKKAKE
notes: FKBP51 lacking residues 401–457 (the helical extension of the 7th helix of the TPR domain), that is, ending at residue 400; also called FKBP51-Δ7He mutant; FKBP51 mutant lacking the helical extension; source: gift of constructs from D. Southworth
Regarding B1, the Kd is 11.6 µM and the “stoichiometry N” value amounted to 1.25 FKBP51-Δ7He per Hsp90.
